Source: patent publication US20080089860A1, “Therapeutic compositions and methods useful in treating cancer” (priority 2006, published 2008)
Changes are numbered by the printed parent chain.

Key:
PRL-3 = molecular target: T1, PRL-3 (Homo sapiens, UniProt O75365); assay: In vitro PTPase assay, recombinant PRL-3; format: biochemical; settings: DiFMUP substrate
T1 construct: made in house; host or cells: E. coli DH5a
Excerpt: Sodium stibogluconate, suramin, sodium orthovanadate and GST fusion protein of SHP-1 have been described previously (Pathak et al., J. Imumol. 167, 3391 (2001)). Meglumine antimonate was obtained from Aventis. cDNAs of human PRL-1, PRL-2 and PRL-3 coding region were derived by RT-PCR from H9 cells (Safai, et al., Lancet 1, 1438 (1984)) and inserted in frame into the pGEX vector. cDNA of PRL-1R86 was generated by recombinant DNA technique using PRL-1 cDNA as template following established procedures (Jiao, et al., Mol. Cell. Biol. 16, 6985 (1996)). GST fusion proteins of the PRL phosphatases were prepared from DH5a bacteria transformed with the pGEX fusion protein constructs as described previously (Yi, et al., Mol. Cell. Biol. 12, 836 (1992)). cDNAs encoding the PRLs tagged at the N-termini with the Flag epitope (Castrucci, et al., J. Virol. 66, 4647 (1992)) were generated via recombinant DNA technique, sequenced to confirm their identities and cloned into the pBabepuro vector (Yang, et al., Blood 91, 3746 (1998)). Anti-Flag monoclonal antibody (M2, Sigma) was purchased from a commercial source. A synthetic phosphotyrosine peptide (Arg-Arg-Leu-Ile-Glu-Asp-Ala-Gle-Tyr-Al- -a-Ala-Arg-Gly (SEQ ID NO: 3), wherein the tyrosine is phosphorylated; UBI) and DiFMUP (6,8-difluoro-4-methylumbelliferyl phosphate, Molecular Probes) were purchased as substrates for PTPase assays.
(§1) In vitro PTPase assays were used to determine the effects of compounds on recombinant PTPases, following established procedures using a synthetic phosphotyrosine peptide or DiFMUP as the substrate (Pathak et al., J. Imumol. 167, 3391 (2001)). Briefly, individual PTPases (0.1 µg/reaction) in 50 µL of PTPase buffer (50 mM Tris, pH 7.4) were incubated at 22° C. for 10 minutes or as indicated in the absence or presence of inhibitory compounds. Substrates (0.2 mM phosphotyrosine peptide) were then added and allowed to react at 22° C. for 18 hrs. PTPase activity of individual reactions was measured by adding 100 µL of malachite green solution (UBI) and then quantifying the amounts of free phosphate cleaved by the PTPase from the peptide substrate by spectrometry (OD660 nm). PTPase assays using DiFMUP as a substrate were conducted following a previously described procedure (Matter, et al., Biochem. Biophys. Res. Comm. 283, 1061 (2001)). Relative PTPase activities were calculated based on the formula: (PTPase activity in the presence of an inhibitory compound/PTPase activity in the absence of the compound)× 100%. To assess the reversibility of PTPase inhibition, GST fusion proteins of the PTPases bound on glutathione beads (Pharmacia) were pre-incubated with cold Tris buffer (50 mM Tris, pH 7.0) or Tris buffer containing the inhibitor at 4° C. for 30 minutes. The beads were then washed three times in cold Tris buffer or not washed prior to subjecting to in vitro PTPase assays.

SHP-1 = molecular target: T2, SHP-1 (Mus musculus, UniProt P29351); assay: In vitro PTPase assay, GST/SHP-1; format: biochemical
T2 construct: made in house
T2 sequence (P29351 whole entry): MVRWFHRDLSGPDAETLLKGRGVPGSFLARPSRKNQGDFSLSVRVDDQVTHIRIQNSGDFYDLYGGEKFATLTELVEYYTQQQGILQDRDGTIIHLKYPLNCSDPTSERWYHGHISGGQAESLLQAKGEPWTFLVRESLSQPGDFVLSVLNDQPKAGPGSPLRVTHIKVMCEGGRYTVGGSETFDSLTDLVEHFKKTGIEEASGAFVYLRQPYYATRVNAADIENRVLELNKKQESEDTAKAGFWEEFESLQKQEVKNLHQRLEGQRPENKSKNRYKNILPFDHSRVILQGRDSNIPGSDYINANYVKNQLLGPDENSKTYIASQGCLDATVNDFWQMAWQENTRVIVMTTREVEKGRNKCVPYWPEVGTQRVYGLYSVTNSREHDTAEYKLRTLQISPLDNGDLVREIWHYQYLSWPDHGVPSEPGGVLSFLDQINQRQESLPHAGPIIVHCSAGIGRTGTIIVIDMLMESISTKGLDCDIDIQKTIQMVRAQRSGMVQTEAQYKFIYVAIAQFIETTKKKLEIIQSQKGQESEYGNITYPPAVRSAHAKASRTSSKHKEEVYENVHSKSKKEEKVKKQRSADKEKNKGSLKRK
Protocol: In vitro PTPase activities were measured using the commercial protein tyrosine phosphatase assay kit (Upstate Biotechnology, Inc. (“UBI”)) following established procedure known to one of skill in the art. […] Briefly, 0.01 µg of GST/PTPase fusion proteins was incubated in 50 µl of Tris buffer (10 mM Tris, pH 7.4) containing different concentrations of inhibitors or chemicals (0-1,000 µg/ml) at 22° […] 100 µl of Malachite Green solution was added and incubated for 5 minutes, and the absorbance at 660 nm was measured after 5 minutes.
To assess the reversibility of inhibition of SHP-1 by PTPase inhibitors, GST/SHP-1 fusion protein bound on glutathione beads were pre-incubated in cold Tris buffer or Tris buffer containing the PTPase inhibitors at 4° C. for 30 minutes. The beads were then either subjected to in vitro PTPase assays or washed 3 times in Tris buffer then subjected to in vitro PTPase assays.
as §1, with “Briefly,” for “In vitro PTPase assays were used to determine the effects of compounds on recombinant PTPases, following established procedures using a synthetic phosphotyrosine peptide or DiFMUP as the substrate (Pathak et al., J. Imumol. 167, 3391 (2001)). Briefly,”, “PTPase assays using DiFMUP as a substrate were conducted following a previously described procedure (Matter, et al., Biochem. Biophys. Res. Comm. 283, 1061 (2001)).” left out

MKP1 = molecular target: T3, MKP1 (Homo sapiens, UniProt P28562); assay: In vitro PTPase assay, GST/MKP1; format: biochemical; settings: section VII comparison
T3 construct: made in house; host or cells: E. coli DH5a
T3 sequence (P28562 13-367 limits assumed): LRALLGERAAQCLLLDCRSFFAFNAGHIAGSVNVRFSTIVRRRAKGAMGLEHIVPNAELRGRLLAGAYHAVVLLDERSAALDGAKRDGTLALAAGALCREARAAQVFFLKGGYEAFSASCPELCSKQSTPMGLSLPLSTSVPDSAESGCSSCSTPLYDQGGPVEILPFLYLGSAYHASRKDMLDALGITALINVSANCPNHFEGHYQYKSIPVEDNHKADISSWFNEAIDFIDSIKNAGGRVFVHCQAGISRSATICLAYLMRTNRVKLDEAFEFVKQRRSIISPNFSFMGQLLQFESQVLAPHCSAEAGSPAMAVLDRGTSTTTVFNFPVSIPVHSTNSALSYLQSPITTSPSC
Protocol: In vitro PTPase activities were measured using the commercial protein tyrosine phosphatase assay kit (Upstate Biotechnology, Inc. (“UBI”)) following established procedure known to one of skill in the art. This assay measures the in vitro dephosphorylation of a synthetic phosphotyrosine peptide of the sequence Arg-Arg-Leu-Ile-Glu-Asp-Ala-Gle-T- -yr-Ala-Ala-Arg-Gly, wherein the tyrosine is phosphorylated (SEQ ID NO: 3). Briefly, 0.01 µg of GST/PTPase fusion proteins was incubated in 50 µl of Tris buffer (10 mM Tris, pH 7.4) containing different concentrations of inhibitors or chemicals (0-1,000 µg/ml) at 22° C. for 10 minutes, followed by addition of 0.2 mM of the phosphotyrosine peptide and incubation at 22° C. for 18 hours. 100 µl of Malachite Green solution was added and incubated for 5 minutes, and the absorbance at 660 nm was measured after 5 minutes.
(§2) In vitro PTPase assays were used to determine the effects of levamisole (Sigma), pentamidine (American Pharmaceutical Partners, Inc.), and ketoconazole (Sigma) on recombinant PTPases, following established procedures (Pathak et al., J. Imumol. 167, 3391 (2001); Pathak et al., Leukemia 16, 2285 (2002), Yi et al., J. Immunol. 169, 5978 (2002)) using a synthetic phosphotyrosine peptide or DiFMUP as the substrate as detailed above in section I.A.2.

GSTm8 = assay: In vitro PTPase assay, GSTm8; format: biochemical; settings: 3-4 μg/ml or 10-100 μg/ml
Excerpt: as §2

[1] = tested on: T4, synthetic phosphotyrosine peptide Arg-Arg-Leu-Ile-Glu-Asp-Ala-Gle-Tyr-Ala-Ala-Arg-Gly, wherein the tyrosine is phosphorylated
T4 sequence: RRLIEDAEYAARG

[2] = molecular target: T5, synthetic phosphotyrosine peptide Arg-Arg-Leu-Ile-Glu-Asp-Ala-Gle-Tyr-Ala-Ala-Arg-Gly, wherein the tyrosine is phosphorylated
T5 chain: RRLIEDAEYAARG

T1 sequence (O75365 whole entry): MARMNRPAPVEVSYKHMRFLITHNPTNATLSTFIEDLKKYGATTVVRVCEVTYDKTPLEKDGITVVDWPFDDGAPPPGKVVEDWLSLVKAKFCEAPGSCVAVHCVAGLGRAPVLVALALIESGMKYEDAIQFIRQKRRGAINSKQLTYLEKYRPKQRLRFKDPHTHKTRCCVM

Cc1ccc(C(=O)Nc2ccc(S(=O)(=O)O)c3cc(S(=O)(=O)O)cc(S(=O)(=O)O)c23)cc1NC(=O)c1cccc(NC(=O)Nc2cccc(C(=O)Nc3cc(C(=O)Nc4ccc(S(=O)(=O)O)c5cc(S(=O)(=O)O)cc(S(=O)(=O)O)c45)ccc3C)c2)c1 [Suramin]
inhibition of PRL-3 compared with sodium stibogluconate (PRL-3): less effective | inhibition of SHP-1 compared with sodium stibogluconate (SHP-1; comparable conditions): less effective | inhibition of GST/SHP-1 after washing (reversibility) (SHP-1; pre-incubated with inhibitor, beads washed): almost completely removed by the washing process

c1ccc([C@H]2CN3CCSC3=N2)cc1 [levamisole]
inhibition of MKP1 (MKP1): substantial inhibition | inhibitory activity against GSTm8 (GSTm8): no obvious inhibitory activity | inhibitory activity against SHP-1 (SHP-1; 3-4 μg/ml or 10-100 μg/ml): no obvious inhibitory activity

[Na+].[Na+].[Na+].[O]=[V]([O-])([O-])[O-] [sodium orthovanadate]
inhibition of PRL-3 compared with sodium stibogluconate (PRL-3): less effective

GST fusion protein of SHP-1
PTPase activity against the peptide substrate (660 nm absorbance, malachite green) [1]: 660 nm absorbance approximately 0.6 above background (0.03)

GST fusion protein of SHP-2
PTPase activity against the peptide substrate (660 nm absorbance, malachite green) [1]: 660 nm absorbance approximately 0.6 above background (0.03)

GST fusion protein of mitogen-activated protein kinase phosphatase 1 (MKP1)
PTPase activity against the peptide substrate (660 nm absorbance, malachite green) [1]: 660 nm absorbance approximately 0.6 above background (0.03)

GST fusion protein of protein tyrosine phosphatase 1B (PTP1B)
PTPase activity against the peptide substrate (660 nm absorbance, malachite green) [1]: 660 nm absorbance approximately 0.6 above background (0.03)

B1: GST fusion protein of PRL-1R86 (protein)
chain: MARMNRPAPVEVTYKNMRFLITHNPTNATLNKFIEELKKYGVTTIVRVCEATYDTTLVEKEGIHVLDWPFDDGAPPSNQIVDDWLRLVKIKFREEPGCCIAVHCVAGLGRAPVLVALALIEGGMKYEDAVQFIRQKRRGAFNSKQLLYLEKYRPKMRLRFKDSNGHRNNCCIQ
in vitro PTPase activity [2]: showed in vitro PTPase activity similar to that of wild type PRL-1

B2: Flag-PRL-1 (protein)
chain: B1 chain with R86S
PTPase activity of anti-Flag immunocomplexes (NIH3T3 transfectants) [2]: a markedly higher PTPase activity (about 23 folds) over that of control transfectants | phosphatase activity of anti-Flag immunocomplexes (WM9 transfectants) [2]: showed phosphatase activities well above the background activity of the vector control cells

B3: Flag-PRL-1R86 (protein)
chain: B1 chain
phosphatase activity of anti-Flag immunocomplexes (WM9 transfectants) [2]: showed phosphatase activities well above the background activity of the vector control cells
